Experimental data: the supplement of paper PMC10065799, “High-throughput profiling of sequence recognition by tyrosine kinases and SH2 domains using bacterial peptide display” (eLife, 2023)

biological target: Hck (UniProt P08631); experiment: phosphorylation enrichment, bacterial display (enrichment ratio); higher = better substrate or ligand; peptides without Tyr show the background
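Also: 11-residue human phosphosite peptides and single-mutation variants displayed on the E. coli surface, counted by deep sequencing, each peptide's frequency after selection divided by its frequency in the unselected input library; frequency after pTyr selection over input frequency; kinase dosed for 20-30% of maximal phosphorylation in three min.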

Hck, sequence (P08631 whole entry, looked up): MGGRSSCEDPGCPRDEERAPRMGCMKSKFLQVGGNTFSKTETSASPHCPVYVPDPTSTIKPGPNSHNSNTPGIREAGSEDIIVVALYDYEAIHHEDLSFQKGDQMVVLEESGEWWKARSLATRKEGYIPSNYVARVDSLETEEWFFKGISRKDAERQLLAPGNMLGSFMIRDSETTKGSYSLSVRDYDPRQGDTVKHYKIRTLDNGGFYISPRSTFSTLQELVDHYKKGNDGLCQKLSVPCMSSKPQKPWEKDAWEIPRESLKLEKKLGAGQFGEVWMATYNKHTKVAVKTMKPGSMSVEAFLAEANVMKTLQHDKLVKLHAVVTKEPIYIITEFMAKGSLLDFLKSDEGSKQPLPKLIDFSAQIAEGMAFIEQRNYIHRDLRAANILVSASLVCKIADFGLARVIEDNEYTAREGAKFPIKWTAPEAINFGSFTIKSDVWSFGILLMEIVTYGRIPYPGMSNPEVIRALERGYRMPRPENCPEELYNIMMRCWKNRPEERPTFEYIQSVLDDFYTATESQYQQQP

Row | Sequence | phosphorylation enrichment
1 | KYWREYILSLE [GPC3_Y299] | 0.461
2 | VAMELYVFGGV [GAN_Y471] | 0.535
3 | TKGNEYVFRVA | 0.511
4 | DENWFYTQAAS [RPS19_Y54_R56Q] | 0.392
5 | PTEAQYRFIYM [PTPN11_Y511_Q506P] | 1.35
6 | FAKTQYPDVFA [CRX_Y63_YF] | 0.483
7 | FLKDVYVDSKD [NDUFAF4_Y69] | 0.707
8 | QFQLKYSETPF [SIX6OS1_Y129_YF] | 0.855
9 | AQINLYQDVML [ZNF806_Y33] | 2.05
10 | YTFTSYYMHWV [IGHV1-46_Y51] | 1.3
11 | HHIDYYKKTTN [FGFR1_Y654] | 0.481
12 | TKFRNYLIPKG [CYP2C8_Y379] | 0.429
13 | KPNMNYDKLSQ [FLI1_Y332_R337Q] | 0.431
14 | TDKLFYIYTPG [SLC27A4_Y243_S247P] | 0.498
15 | LVPPRYVRSEI [PKP2_Y194_A195V] | 0.321
16 | DLVSEYQQYQD [TUBB3_Y422] | 0.656
17 | LRNIDYFRLDG [ATRX_Y2083_YF] | 1.63
18 | PDSVDYPKKGF [CTSK_Y121_R122P_YF] | 1.15
19 | NLSVPYDSSLK [ABCC8_Y1353_R1352P] | 0.445
20 | GPIFRYDSGGA [CYP11B1_Y81_L83S] | 0.43
21 | ISDNAYQYMLT [MYH7_Y162] | 0.577
22 | NLTLKYPIEHG [ACTA1_Y71_I66N] | 0.446
23 | GGGGSYNVFGN [HNRNPA1_Y312_D314V] | 0.424
24 | PTTKTYFPHFH [HBA1_Y43_D48H] | 0.688
25 | DSGKLYALDGL [INO80_Y1104_V1108G] | 0.828
26 | DYLEKYYKFGC [NNMT_Y24_S29C] | 0.539
27 | LEIETYRRLLD [KRT12_Y429] | 0.497
28 | SHMVNYQPFRK [TEX37_Y25_D24N_YF] | 0.405

biological target: Jak2 (UniProt O60674); experiment: as above
Sequence (O60674 whole entry, looked up): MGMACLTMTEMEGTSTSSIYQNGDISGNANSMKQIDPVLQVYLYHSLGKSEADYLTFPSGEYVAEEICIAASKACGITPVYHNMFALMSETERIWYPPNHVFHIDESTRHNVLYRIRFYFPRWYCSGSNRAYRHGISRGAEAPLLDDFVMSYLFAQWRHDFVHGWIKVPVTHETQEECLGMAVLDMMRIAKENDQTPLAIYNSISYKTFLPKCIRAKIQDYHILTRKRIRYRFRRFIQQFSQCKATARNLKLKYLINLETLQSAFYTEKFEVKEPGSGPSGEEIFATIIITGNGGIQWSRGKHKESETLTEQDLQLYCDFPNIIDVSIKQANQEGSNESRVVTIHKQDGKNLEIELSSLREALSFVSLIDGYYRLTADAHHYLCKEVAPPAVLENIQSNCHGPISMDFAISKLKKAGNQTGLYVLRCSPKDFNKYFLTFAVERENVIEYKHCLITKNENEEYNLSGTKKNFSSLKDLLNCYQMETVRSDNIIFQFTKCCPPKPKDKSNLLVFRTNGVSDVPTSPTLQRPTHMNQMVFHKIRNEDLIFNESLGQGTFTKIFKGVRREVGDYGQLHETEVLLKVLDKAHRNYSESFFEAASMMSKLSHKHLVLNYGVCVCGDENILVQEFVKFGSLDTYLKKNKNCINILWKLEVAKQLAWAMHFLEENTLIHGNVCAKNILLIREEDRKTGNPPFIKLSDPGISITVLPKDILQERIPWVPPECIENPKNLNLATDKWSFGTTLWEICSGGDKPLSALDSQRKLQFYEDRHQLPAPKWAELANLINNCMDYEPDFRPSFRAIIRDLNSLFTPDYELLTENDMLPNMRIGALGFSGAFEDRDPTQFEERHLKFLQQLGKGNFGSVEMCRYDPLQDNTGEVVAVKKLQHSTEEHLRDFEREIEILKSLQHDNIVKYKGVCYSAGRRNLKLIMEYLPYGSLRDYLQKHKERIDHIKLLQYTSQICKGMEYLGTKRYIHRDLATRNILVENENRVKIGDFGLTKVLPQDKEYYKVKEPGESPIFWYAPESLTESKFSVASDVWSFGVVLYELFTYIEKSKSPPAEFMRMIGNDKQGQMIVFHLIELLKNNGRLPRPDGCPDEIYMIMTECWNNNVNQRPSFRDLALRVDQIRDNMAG

Row | Sequence | phosphorylation enrichment
29 | KYWREYILSLE [GPC3_Y299] | 0.974
30 | VAMELYVFGGV [GAN_Y471] | 1.37
31 | TKGNEYVFRVA | 0.549
32 | DENWFYTQAAS [RPS19_Y54_R56Q] | 0.876
33 | PTEAQYRFIYM [PTPN11_Y511_Q506P] | 2.37
34 | FAKTQYPDVFA [CRX_Y63_YF] | 0.724
35 | FLKDVYVDSKD [NDUFAF4_Y69] | 0.855
36 | QFQLKYSETPF [SIX6OS1_Y129_YF] | 2.17
37 | AQINLYQDVML [ZNF806_Y33] | 1.01
38 | YTFTSYYMHWV [IGHV1-46_Y51] | 3.85
39 | HHIDYYKKTTN [FGFR1_Y654] | 0.592
40 | TKFRNYLIPKG [CYP2C8_Y379] | 0.592
41 | KPNMNYDKLSQ [FLI1_Y332_R337Q] | 0.612
42 | TDKLFYIYTPG [SLC27A4_Y243_S247P] | 1.68
43 | LVPPRYVRSEI [PKP2_Y194_A195V] | 0.685
44 | DLVSEYQQYQD [TUBB3_Y422] | 1.42
45 | LRNIDYFRLDG [ATRX_Y2083_YF] | 26.8
46 | PDSVDYPKKGF [CTSK_Y121_R122P_YF] | 1.97
47 | NLSVPYDSSLK [ABCC8_Y1353_R1352P] | 0.588
48 | GPIFRYDSGGA [CYP11B1_Y81_L83S] | 0.69
49 | ISDNAYQYMLT [MYH7_Y162] | 1.17
50 | NLTLKYPIEHG [ACTA1_Y71_I66N] | 0.669
51 | GGGGSYNVFGN [HNRNPA1_Y312_D314V] | 0.723
52 | PTTKTYFPHFH [HBA1_Y43_D48H] | 0.951
53 | DSGKLYALDGL [INO80_Y1104_V1108G] | 0.912
54 | DYLEKYYKFGC [NNMT_Y24_S29C] | 1.25
55 | LEIETYRRLLD [KRT12_Y429] | 1.01
56 | SHMVNYQPFRK [TEX37_Y25_D24N_YF] | 0.573

biological target: MERTK (UniProt Q12866); experiment: as above
Sequence (Q12866 whole entry, looked up): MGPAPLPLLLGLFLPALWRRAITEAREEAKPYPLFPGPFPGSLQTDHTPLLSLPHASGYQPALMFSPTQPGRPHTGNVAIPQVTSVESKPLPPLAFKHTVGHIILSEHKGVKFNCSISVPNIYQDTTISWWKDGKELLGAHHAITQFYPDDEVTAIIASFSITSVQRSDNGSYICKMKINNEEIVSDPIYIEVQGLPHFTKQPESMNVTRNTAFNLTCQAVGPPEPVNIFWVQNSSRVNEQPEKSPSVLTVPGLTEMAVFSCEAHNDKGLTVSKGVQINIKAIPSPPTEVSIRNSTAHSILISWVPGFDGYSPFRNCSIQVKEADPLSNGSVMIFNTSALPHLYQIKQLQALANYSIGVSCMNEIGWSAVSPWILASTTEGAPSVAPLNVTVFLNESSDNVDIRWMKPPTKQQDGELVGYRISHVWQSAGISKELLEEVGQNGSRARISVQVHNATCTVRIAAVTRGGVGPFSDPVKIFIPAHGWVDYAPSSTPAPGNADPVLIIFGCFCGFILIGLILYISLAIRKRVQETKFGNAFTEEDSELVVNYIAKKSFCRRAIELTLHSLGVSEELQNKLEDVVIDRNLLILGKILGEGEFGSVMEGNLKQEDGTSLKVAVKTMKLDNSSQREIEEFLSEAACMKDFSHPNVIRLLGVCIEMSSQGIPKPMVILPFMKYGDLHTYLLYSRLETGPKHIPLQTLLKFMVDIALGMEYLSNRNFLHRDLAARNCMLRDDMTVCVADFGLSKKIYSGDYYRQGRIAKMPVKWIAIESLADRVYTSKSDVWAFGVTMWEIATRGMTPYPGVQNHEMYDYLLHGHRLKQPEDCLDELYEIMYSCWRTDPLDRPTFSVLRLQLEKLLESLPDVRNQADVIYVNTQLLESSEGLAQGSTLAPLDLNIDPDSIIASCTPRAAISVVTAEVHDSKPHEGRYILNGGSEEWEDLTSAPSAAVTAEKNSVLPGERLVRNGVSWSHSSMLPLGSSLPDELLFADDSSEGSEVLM

Row | Sequence | phosphorylation enrichment
57 | KYWREYILSLE [GPC3_Y299] | 0.39
58 | VAMELYVFGGV [GAN_Y471] | 0.928
59 | TKGNEYVFRVA | 0.452
60 | DENWFYTQAAS [RPS19_Y54_R56Q] | 0.395
61 | PTEAQYRFIYM [PTPN11_Y511_Q506P] | 1.18
62 | FAKTQYPDVFA [CRX_Y63_YF] | 0.38
63 | FLKDVYVDSKD [NDUFAF4_Y69] | 0.471
64 | QFQLKYSETPF [SIX6OS1_Y129_YF] | 1.24
65 | AQINLYQDVML [ZNF806_Y33] | 2.17
66 | YTFTSYYMHWV [IGHV1-46_Y51] | 4.16
67 | HHIDYYKKTTN [FGFR1_Y654] | 0.663
68 | TKFRNYLIPKG [CYP2C8_Y379] | 0.374
69 | KPNMNYDKLSQ [FLI1_Y332_R337Q] | 0.394
70 | TDKLFYIYTPG [SLC27A4_Y243_S247P] | 1.46
71 | LVPPRYVRSEI [PKP2_Y194_A195V] | 0.588
72 | DLVSEYQQYQD [TUBB3_Y422] | 0.488
73 | LRNIDYFRLDG [ATRX_Y2083_YF] | 3.41
74 | PDSVDYPKKGF [CTSK_Y121_R122P_YF] | 1.31
75 | NLSVPYDSSLK [ABCC8_Y1353_R1352P] | 0.426
76 | GPIFRYDSGGA [CYP11B1_Y81_L83S] | 0.42
77 | ISDNAYQYMLT [MYH7_Y162] | 2.15
78 | NLTLKYPIEHG [ACTA1_Y71_I66N] | 0.407
79 | GGGGSYNVFGN [HNRNPA1_Y312_D314V] | 0.457
80 | PTTKTYFPHFH [HBA1_Y43_D48H] | 0.605
81 | DSGKLYALDGL [INO80_Y1104_V1108G] | 2.2
82 | DYLEKYYKFGC [NNMT_Y24_S29C] | 0.541
83 | LEIETYRRLLD [KRT12_Y429] | 0.367
84 | SHMVNYQPFRK [TEX37_Y25_D24N_YF] | 0.358

system: c-Abl (mouse); experiment: as above

Row | Sequence | phosphorylation enrichment
85 | KYWREYILSLE [GPC3_Y299] | 0.677
86 | VAMELYVFGGV [GAN_Y471] | 1.05
87 | TKGNEYVFRVA | 0.537
88 | DENWFYTQAAS [RPS19_Y54_R56Q] | 0.62
89 | PTEAQYRFIYM [PTPN11_Y511_Q506P] | 1.98
90 | FAKTQYPDVFA [CRX_Y63_YF] | 0.478
91 | FLKDVYVDSKD [NDUFAF4_Y69] | 0.66
92 | QFQLKYSETPF [SIX6OS1_Y129_YF] | 1.39
93 | AQINLYQDVML [ZNF806_Y33] | 0.928
94 | YTFTSYYMHWV [IGHV1-46_Y51] | 1.06
95 | HHIDYYKKTTN [FGFR1_Y654] | 0.569
96 | TKFRNYLIPKG [CYP2C8_Y379] | 0.573
97 | KPNMNYDKLSQ [FLI1_Y332_R337Q] | 0.431
98 | TDKLFYIYTPG [SLC27A4_Y243_S247P] | 0.673
99 | LVPPRYVRSEI [PKP2_Y194_A195V] | 0.58
100 | DLVSEYQQYQD [TUBB3_Y422] | 1.04
101 | LRNIDYFRLDG [ATRX_Y2083_YF] | 5.39
102 | PDSVDYPKKGF [CTSK_Y121_R122P_YF] | 2.12
103 | NLSVPYDSSLK [ABCC8_Y1353_R1352P] | 0.516
104 | GPIFRYDSGGA [CYP11B1_Y81_L83S] | 0.576
105 | ISDNAYQYMLT [MYH7_Y162] | 0.704
106 | NLTLKYPIEHG [ACTA1_Y71_I66N] | 0.717
107 | GGGGSYNVFGN [HNRNPA1_Y312_D314V] | 0.652
108 | PTTKTYFPHFH [HBA1_Y43_D48H] | 0.676
109 | DSGKLYALDGL [INO80_Y1104_V1108G] | 0.699
110 | DYLEKYYKFGC [NNMT_Y24_S29C] | 1.04
111 | LEIETYRRLLD [KRT12_Y429] | 0.656
112 | SHMVNYQPFRK [TEX37_Y25_D24N_YF] | 0.504
